Assay [1] concerns the target 3C8 iAb_(aff1) Fab (anti-OX40 clone 3C8 engrafted with the iAb_(aff1) residue set, expressed as a monomeric Fab).
The target is the same in assay [2]. Put plainly: AUC; sedimentation velocity; 3C8 iAb_(aff1) Fab at 0.6, 0.2 and 0.07 mg/ml in 25 mM histidine acetate pH 5.5, 150 mM NaCl; 20 °C, 50,000 RPM; global fit to a monomer-dimer equilibrium model (dimer to monomers).

B1: 3C8 iAb_(aff1) Fab (anti-OX40 clone 3C8 engrafted with the iAb_(aff1) residue set, expressed as a monomeric Fab) (Fab, V domains shown)
VH: EVQLVQSGAEVKKPGATVVVLCKASGYAFTNYLIEWVRQAPGQGLEWIGVINPGSGDTYYSEKFKGRVTLFADTSTSQAILILTSLRSEDTAVYYCARDRLDYWGQGTLVTVSS
VL: DIQMTQSPSSLSASVGDRVTITCHASQDISSYIVWYQQKPGKSFKGLIYHGTNLESGVPSRFSGSGSGTDFTLTISSLQPEDFATYYCVHYAQFPYTFGQGTKVEIK
In general, Kd refers to the equilibrium constant for the complex coming apart. In general, stoichiometry N refers to a count of units in the complex or per binding partner. Take B1: the OX40 agonism of the monomeric Fab in Jurkat OX40 NF-kB luciferase reporter cells; EC50 against the full-length iAb (aff1) IgG in assay [1] was found to be 100 fold. In assay [2], this molecule yielded a Kd of 6.8 µM and a stoichiometry N of 2.
